# Measurements: the nanobody polyreactivity screen of Harvey et al. (2022)
# Test: yeast display, Sf9 membrane polyspecificity reagent, FACS + sequencing; frameworks hold sequencing errors
# Summary of the method: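 After 36–48 hours of galactose induction, yeast (Saccharomyces cerevisiae BJ5465) displaying a synthetic nanobody library were stained at 4 °C for 1 hour with 10% biotinylated, detergent-solubilized Sf9 membrane reagent. Streptavidin microbeads enriched the stained cells before FACS sorting into low and high (top ~1%) gates on anti-HA and streptavidin fluorescence. Each clone's polyreactivity label reflects its gate of origin.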
row,Sequence,polyreactivity (PSR sort gate)
1,QVQLVESGGGLVQAGGSLRLSCAASGFIFYRYAMGWYRQAPGKEREFVAVISRSGDRTNYADSVKGRFTISRDNAKNTVYLQMNSLKPEDTAVYYCNTDSRSAHGYWGQGTQVTVSS,high polyreactivity
2,QVQLVESGGGLVQAGGSLRLSCAASGFIFYRYAMGWYRQAPGKERELVAAISRGDSTYYADSVKGRFTISRDNAKNTVYLQMNSLKPEDTAVYYCNADRPRYTYRATTYTGRYDYWGQGTQVTVSS,low polyreactivity
3,QVQLVESGGGLVQAGGSLRLSCAASGFIFYRYAMGWYRQAPGKERELVAAISRSGGSTYYADSVKGRFTISRDNAKNTVYLQMNSLKPEDTAVYYCAADRGSLAPGNDYWGQGNQVTVSS,high polyreactivity
4,QVQLVESGGGLVQAGGSLRLSCAASGFIFYRYAMGWYRQAPGKERELVAAISSSGGSTYYADSVKGRFTISRDNAKNTVYLQMNSLKPEDTAVYYCNKRPQQYSPGYDYWGQGTQVTVSS,high polyreactivity
5,QVQLVESGGGLVQAGGSLRLSCAASGFIFYRYAMGWYRQAPGKERELVAAISTLGGSTFYADSVKGRFTISRDNAKNTVYLQMISLKPEDTAVYYCATGPLRAYDYWGQGTQVTVSS,high polyreactivity
6,QVQLVESGGGLVQAGGSLRLSCAASGFIFYRYAMGWYRQAPGKERELVASITKRGGSTRYADSVKGRFTISRDNAKNTVYLQMNSLKPEDTAVYYCAKVPYSTAFDYWGQGTQVTVSS,high polyreactivity
7,QVQLVESGGGLVQAGGSLRLSCAASGFIFYRYAMGWYRQAPGKESELVAAISRSGGSKYYADSVKGRFTISRDLANNTVYLQLNSLKPEDTAVYYCATPVHRKLYLVNYWGQGTQVTVSS,low polyreactivity
8,QVQLVESGGGLVQAGGSLRLSCAASGFIFYSNAMGWYRQAPGKDRELVASITGDGGTTYYADSVKGRFTISRDKAKNTVYLQMNSLKPEATAVYYCAKDYIYRGYYTDFRYEDYDYWGPGTQVTVSS,low polyreactivity
9,QVQLVESGGGLVQAGGSLRLSCAASGFIFYSNAMGWYRQAPGKERELVAAIRSTGSTSYADSVKGRFTISRDNAKNTVYLQMNSLKPEDTAVYYCAKVRYWRGYDYWGQGTQVTVSS,high polyreactivity
10,QVQLVESGGGLVQAGGSLRLSCAASGFIFYSNAMGWYRQEPGKERELVAAITSGGGSTYYADSVKGRFTISRDNAKNTVYLQMNSLKPEDTAVYYCAVSIGRYPYRYGYWGQGTQVTVSS,high polyreactivity
11,QVQLVESGGGLVQAGGSLRLSCAASGFIFYSYAMGWNRQAPGKERELVADISRSGSTNYADSVKGRFTISRDNAKNTVYLQMNSLKPEDTAVYYCNKGYHSWSRLSQFGWSYDYWGQGTQVTVSS,high polyreactivity
12,QVQLVESGGGLVQAGGSLRLSCAASGFIFYSYAMGWYRQAPGKEREFVASISGRTGSTYYADSVKGRFTISRDNAKNTVYLQMNSLKPEDTAVYYCNARIVHSFRYDYWGQGTQVTVSS,low polyreactivity
13,QVQLVESGGGLVQAGGSLRLSCAASGFIFYSYAMGWYRQAPGKERELVATITSGGSTNYADSVKGRFTISRDNAKNTVYLQMNSLKPEDTAVYYCAARYYPFWARRNRYDYWGQGTQVTVSS,high polyreactivity
14,QVQLVESGGGLVQAGGSLRLSCAASGFIFYSYDMGWYRQAPGKERELVAANDSRGVNTYYADSVKGRFTISRDNAKNTVYLQMNSLKPEDTAVYYCAAQASSQIDYYGGHYGYWGQGTQVTVSS,low polyreactivity
15,QVQLVESGGGLVQAGGSLRLSCAASGFIFYVYAMGWYRQAPGKERELVAAISADGGITYYADSVKGRFTISRDNAKNSVYFQMNSLKPEDTAVYYCNTLGDQDAYAGFRLDYWGQGTQVTVSS,low polyreactivity
16,QVQLVESGGGLVQAGGSLRLSCAASGFIFYYDAMGWYIQAPGKERELVARIYSGRSTYYADSVKGRFTISRDNAKNTVYLQMNSLKPEDTAVYYCNATRLVWFSQGYDYWGQGTQVTVSS,high polyreactivity

row,Sequence,polyreactivity (PSR sort gate)
1,QVQLVESGGGLVQAGGSLRLSCAASGFIFYYNAMGWYRQAPGKERELVAAITRSGGSTYYADSVKGRFTISRDNAKNTVYLQMNSLKPEDTAVYYCAARVYPYHWSYYYWGQGTQVTVSS,high polyreactivity
2,QVQLVESGGGLVQAGGSLRLSCAASGFIFYYNAMGWYRQAPGKERELVARISSGSGTYYADSVKGRFTISRDNAKNTVYLQMNSLKPEDTAVYYCAARYPRGAMYYWGQGTQVTVSS,low polyreactivity
3,QVQLVESGGGLVQAGGSLRLSCAASGFIFYYYAMGWYRQAPGKERELVAAISRSGGSTYYADSVKGRFTISRDNAKNTVYLQMNSLKPEDTAVYYCAVYGYYALTHWEYDYWGQGTQVTVSS,high polyreactivity
4,QVQLVESGGGLVQAGGSLRLSCAASGFIFYYYAMGWYRQAPGKERELVAAITSSGGSTYYADSVKGRFTISRDNAKNTVYLQMISLKPEDTAVYYCNALQYSRMDYWGQATQVTVSS,high polyreactivity
5,QVQLVESGGGLVQAGGSLRLSCAASGFIFYYYAMGWYRQAPGKERELVASISSDGSTYYADSVKGRFTISRDNAKNTVYLQMNSLKPEDTAVYYCNADRYYPDDLSDGVGTYDYWGQGTQVTVSS,low polyreactivity
6,QVQLVESGGGLVQAGGSLRLSCAASGFIIDCYAMGRYRQAPGKERELVAVISQRGSNTYYADSVKGRFTISRDHAKNTVYLQMNSLKPEDTAVYYCAARYKQGDSTGGRMNYWGQGTQVTVSS,high polyreactivity
7,QVQLVESGGGLVQAGGSLRLSCAASGFIIDTYPMGCYRQAPGKERELVAAITRSGGSTYYADSVKGRFTISRDNAKNTVYLQMNSLKPEDTAVYYCAARQRYTRYDYWGQGTQVTVSW,high polyreactivity
8,QVQLVESGGGLVQAGGSLRLSCAASGFIIDYYAKGWYRQAPGKERELVASITDSTTYYADSVKGRFTISRDNAKNTVYLQMNSLKPEDTAVYYCNARGGYAYVLYDYWGQGTQVTVSS,low polyreactivity
9,QVQLVESGGGLVQAGGSLRLSCAASGFIIFDYAMGWYRQAPGKESELVAAITSGGSTDYADSVKGRFTLSRDNAKNTVYLQMNSLKPEDTAVYYCAAVYGSVSRYDYWGQGTQVTVSA,low polyreactivity
10,QVQLVESGGGLVQAGGSLRLSCAASGFIIKANAMGWYRQAPGKERELVASITFGGDSTYYADSVKGRFTISRDNAKNTVYLQMNSLKPEDTAVYYCNTRRRSYRTYYYWGQGTQVTVLS,low polyreactivity
11,QVQLVESGGGLVQAGGSLRLSCAASGFIIKGNVMGWYRQAPGKERELVAAITRRGSTYYADSVKGRFTISRDNAKNTVYLQMNSLKPEDTAVYYCAARPWKAIEKVDGSGGGDYWGQGTQVTVSS,low polyreactivity
12,QVQLVESGGGLVQAGGSLRLSCAASGFIIKSYAMGWYRQAPGKERELVAAISYTGSITYYADSVKGRFTISRDNAKNTVYLQMNSLKPEDTAVYYCAVGRYADQHDYWGQGTQVTVSS,high polyreactivity
13,QVQLVESGGGLVQAGGSLRLSCAASGFIIPGYAMGWYRQAPGKERELVAAISSGTSTYYADSVKGRFTISRDNAKNTVYLQMNSLKPEATAVYYCAADTWYRFGYWGQGTQVTVSS,low polyreactivity
14,QVQLVESGGGLVQAGGSLRLSCAASGFIIPGYAMGWYRQAPGKERELVAAISSGTSTYYEDSVKGRFTISRDNAKNTVYLQMNSLKPEATAVYDCAAETWYRFGYWGQGTQVTVSS,low polyreactivity
15,QVQLVESGGGLVQAGGSLRLSCAASGFIIPYYAMGWYRQAPGKERELVAAISRSGGSTYYADSVKGRFTISRDNAKNTVYLQMHSLKPEDTAVYYCATRKGGTLYNYWGQGTQVTVSS,high polyreactivity
16,QVQLVESGGGLVQAGGSLRLSCAASGFIIQGNALGWYRQAPGTERELVAAISSSVSTYYADSVKGRFTISRDNAKNTVYLQMNSLKPEDNAVYDCNAGFPLSLWLGDYWGQGTLVTVSS,low polyreactivity
